Biological target: CVS-11
Test: cell-based or functional assay

B1: 人源抗狂犬病毒中和抗体Fab (Fab, V domains shown)
VH: ELLESGGGLVQPGGSLRLSCAASGFTFSSYAMSWVRQAPGKGLEWVSSINRSGDITTYADSVKGRFTISRDNSKNTLYLQMNSLRAEDTAVYYCAKKTRRFDYWGQGTLVTVSS
VL: ESALTQPRSVSGSPGQSVTISCTGTSSDIGGYNFVSWYQQHPGKAPKLMIYDATKRPSGVPDRFSGSKSGNTASLTISGLQAEDEADYYCCSYAGDYTPGVVFGGGTKLTVLG
- 中和效价 (狂犬病荧光抗体病毒中和试验 FAVN, BHK-21细胞): 10.3 IU/mL
